# In patent US20240262869A1:
# Where two headings read alike, the source gives them in different places.
# Legend:
# [1] = biological target: neutralizing antibody CR3022
# [2] = biological target: neutralizing antibody CR3022; remark: listed apart in the source
# [3] = biological target: neutralizing antibody CR3022; remark: listed apart in the source
substance,measurement,setting,value
mInCV02R (SARS CoV-2 RBD N-1) having EIS at the N-terminal (from UniProt P0DTC2 332-532) (ligand),Kd,[1],15.9 nM
same,Kd,[2],< 1 nM
same,Kd,[3],16.5 nM
